Literature values, collected in patent publication US20090011987A1, “Use of Glp-2 for the Treatment of Ischemia-Reperfusion Injury” (Novo Nordisk A/S, priority 2005, published 2009).

Settings: adult human plasma

In the case of “GLP-2(1-33) [wild type human GLP-2(1-33)]”, the half-life is listed as “lower than 2 hours”.
